Measured values: the DeepSol protein solubility set

Assay: soluble on expression in E. coli; label from the status in PepcDB or PDB records

| Sequence | soluble on expression in E. coli |
| --- | --- |
| MKGITSLGSKWFVEFEKNNVHNVYDRIAEHFTKTRYRIWPGVELFLKQTSPLDTVLDVGCGNGKNLISYRNLFCIGIDRCVPLVKTCKQRQLETAVADILELPFQSEKFDIVLCIAVLHHLCTRERRILAIQELGRVLRPGGSCLLYVWAANENDGKDEVKNTKAREKMRFLDENKQEALIPWVVIDHEKKATQLEKNLKQPSTFTLERYYHLYRQGELEEECLQSNCFHIQHSYYEQSNWCVVLDKKS | soluble |
| MKGTIFAVALNHRSQLDAWQEAFQQSPYKAPPKTAVWFIKPRNTVIGCGEPIPFPQGEKVLSGATVALIVGKTATKVREEDAAEYIAGYALANDVSLPEESFYRPAIKAKCRDGFCPIGETVALSNVDNLTIYTEINGRPADHWNTADLQRNAAQLLSALSEFATLNPGDAILLGTPQARVEIQPGDRVRVLAEGFPPLENPVVDEREVTTRKSFPTLPHPHGTLFALGLNYADHASELEFKPPEEPLVFLKAPNTLTGDNQTSVRPNNIEYMHYEAELVVVIGKQARNVSEADAMDYVAGYTVCNDYAIRDYLENYYRPNLRVKSRDGLTPMLSTIVPKEAIPDPHNLTLRTFVNGELRQQGTTADLIFSVPFLIAYLSEFMTLNPGDMIATGTPKGLSDVVPGDEVVVEVEGVGRLVNRIVSEETAK | soluble |
| MKHLKFQSVFDIIGPVMIGPSSSHTAGAVRIGKVVHSIFGEPSEVTFHLYNSFAKTYQGHGTDKALVAGILGMDTDNPDIKNSLEIAHQKGIKIYWDILKDSNSPHPNTAKITVKNGDRSMSITGVSIGGGNIQVTELNGFSVSLTMNTPTLIIVHQDIPGMIAKVTDILSDFNINIAQMNVTRESAGEKAIMIIEVDSRDCQQAVKKIEAIPHLHNVNFFD | soluble |
| MKHTFKLSLLCSAILLAGCGDNTSSSGTTDKVTFESEVQALLDRGTSISFTIQGANADVPAPSYLLMDTSDGTLGLPTNGDDALTNPRASMNTMDGWSTSMPIVLNFNGDGFAPGMLASGVKVIKINQRLTEWDGKTNPIAKVLVQNQDYVVQANGKSLYVQFADSLDESSEYIFAVTQDVTDVNGEPIGTSSSYAVAKSKQVKYESGDLASVQAVTEAVEGIFGLAQVNPADIVYSSWFSTQSVGDTLAAVKGVTATGFATGANTLNTIYKNDTNENAVDLATAYTMVLGETQDFMTALDSDSDFNKYVSDLDAAKTAIKGLYVQSGASVNVTQGQVRLPHYLEKGANWNMQPMVSAMPSLAKLNAALTDPAEQANMVQQLSSGVFASSPVDVSKLATDPTEQLKLVGSKLYLNDGTQLDSERVITRYSPVPEVKSLENVEFLLFTPQNGVAKDVVIYQHGITSAKENAYAFAFNMVQTGVAVIAIDLPIHGTRSLDEQRSANANVLAYLNLSNLAVARDNLRQSVLDVLGLRASLVVSAQGGLLAGGPLQGFNPMTGSQVK | not soluble |
| MKIAIGSDHAGFPLKEKIKEFLKGEGHKVIDVGTHAQESTHYPIYAKEVVRAIRSGKAERGILICGTGIGMSITANKFRGIRAALCTNEYMARMSRLHNDANVLCLGERVLGVELALSIVKVWLETPFEGGRHLKRLEIISEIEDEICGENIPR | soluble |
| MKIAILGAGCYRTHAAAGITNFMRACEVAKEVGKPEIALTHSSITYGAELLHLVPDVKEVIVSDPCFAEEPGLVVIDEFDPKEVMEAHLSGNPESIMPKIREVVKAKAKELPKPPKACIHLVHPEDVGLKVTSDDREAVEGADIVITWLPKGNKQPDIIKKFADAIPEGAIVTHAATIPTTKFAKIFKDLGREDLNITSYHPGCVPEMKGQVYIAEGYASEEAVNKLYEIGKIARGKAFKMPANLIGPVCDMCSAVTATVYAGLLAYRDAVTKILGAPADFAQMMADEALTQIHNLMKEKGIANMEEALDPAALLGTADSMCFGPLAEILPTALKVLEKHKVVEEEGKTKCEIMSQKE | soluble |
| MKIAIVGAGIGGLTAAALLCEQGHEVKVFEKNSTITEVGAGIGIGGNVIDKLGKHDLAKGIKNIGQVINVMEILDDKDNVLSKAKLKKNTVNLTMTRQSLIDVIKSYVSESAIYTNHHVTHVDNNALKVVMHFEAQEAEAFDLCIGADGLHSNIRHTVAPNSKTQYQGYTVFRGLVEDIDIKSDNVAKEYWSAKGRVGVVPLLNNQAYWFISINAKENDATMQSYGKPHLQARFNHFPNEVRKVLDKQSETDILLHDIYDLQPLKTFVYQRVILLGDAAHATTPNMGQGAGQAMEDAIVLANCLQAYPFEAALQRYDKIRVDHTKKVIKRSRKIGKLAQRSNKIVISLRNSIAKIMPNRLVAAQTKFIYKSKNKLEHHHHHH | soluble |
| MKIEHLQHPTTHQLDQLMTIWLSGNLTAHDFVSADYWRQQAPLVREALQSAELIVGLTDGPEAYILGFIGLQNDYIAGIFICNDAQHQGLGTALLATAQADYHQLQLNVYVANRPAIAFYHYHGFRVIDQASDQATQQSEYTMQWQR | not soluble |
| MKIGFFTDTYFPQVSGVATSIKTLKDELEKHGHEVYIFTTTDPNATDFEEDVIRMPSVPFVSFKDRRVVVRGMWYAYLIAKELELDLIHTHTEFGAGILGKMVGKKMKIPVIHTYHTMYEDYLHYIAKGKVVRPSHVKFFSRVFTNHTTGVVCPSERVIEKLRDYGVTAPMRIIPTGIEIDKFLRPDITEEMIAGMRQQLGIEEQQIMLLSLSRISYEKNIQAIIQGLPQVIEKLPQTRLVIVGNGPYLEDLKELAEELEVSEYVQFTGEVPNEEVAIYYKAADYFVSASTSETQGLTYTEAMAAGVQCVAEGNAYLNNLFDHESLGKTFKTDSDFATTLIDYIQANIKMDQTILDEKLFEISSTNFGNKMIEFYQDTLIYFDQLQMEKENADSIKKIKVKFTSLRKLEHHHHHH | soluble |
| MKIIVQKFGGTSVKDDKGRKLALGHIKEAISEGYKVVVVVSAMGRKGDPYATDSLLGLLYGDQSAISPREQDLLLSCGETISSVVFTSMLLDNGVKAAALTGAQAGFLTNDQHTNAKIIEMKPERLFSVLANHDAVVVAGFQGATEKGDTTTIGRGGSDTSAAALGAAVDAEYIDIFTDVEGVMTADPRVVENAKPLPVVTYTEICNLAYQGAKVISPRAVEIAMQAKVPIRVRSTYSNDKGTLVTSHHSSKVGSDVFERLITGIAHVKDVTQFKVPAKIGQYNVQTEVFKAMANAGISVDFFNITPSEIVYTVAGNKTETAQRILMDMGYDPMVTRNCAKVSAVGAGIMGVPGVTSKIVSALSEKEIPILQSADSHTTIWVLVHEADMVPAVNALHEEFELSK | soluble |
| MKIKVISRNPNTYQRETTDKRNKIVRNFNTPADPFRSQVEYTRALNATKLERVFAKPFVASLDGHVDGVQVLAKHPNRPSTVFSGARDGQVKIWNLASRECQATLDAHRGLVNDISIDNNNGENFVTVGQDNQLKYWKIEGQQKTPAHSIAMDGIVYGVSHLSFSSDFVTCGEDISVWKPYRETPLRSYNLGTDTIHTCRANPVEENVIVGARSDRSIYVLDTRQDVPLKKVTMKMRPNKISWNPMEAYNFTVASEDYSLYTFDMRYMEHPVQSHQGFTSAVLDVDYSPTGQEFVAAGYDRSIRLFKARDMTSRDVYYTKRMASVLSVLWSADSKFVLSGSNEMNIRVWKANAAEKLGPLTKREKQAFAYNEKLRDTYKNHPEVRRIAKHRNVPRHIFTAAKEHKLIRDARGRRDFRRAKAAGLDEEESYLPQTQKIMVGDAEM | not soluble |
| MKILLEVKYMTKFQVAYVPVGVPTFHLESAQKEFEKSIDLLNTITDAAIVPDKMLLSIQDLTNFLDTIEPSLIILQNITFANAAYASEVLKRFSCPVLLWTLREPVIDGGRLRLNSLTGAYSAGNALAAFRDGNFEYIFGAPQEERTKKTISACIRAAWLKNELKNLRIASVGHTPQGFGFGRAMDADMQKVFGATLESIEVRELIDMAKGYTDDECSEYLDKMTKCTVGLDKTPDNNRKDFARLCKAYKEYVDENNIGALSSRCWPDFFTAFGTPVCGVLAMLNDMGVAASCEADTYGALSMYMGMKLSEQAVFFGDPVSLDESENTITFWHCGTAACSIAREDTGATIGVHPNRKIGPVMDFGCKAADKVTVFRVGQKADGSFRFFVTTGSALDKPKQFCGTSIVVRTDKNSYDIVNQSVKDGWEPHFVVIYGDCSDELKVLGHMLEIEVCEY | not soluble |
| MKINNGPVLCPHCGCLSAYYEIDRLAAIREKVNKEGGSAAWDSTLQAHKKKAFCLMCHKSIDEVVIGQSDAPESTK | not soluble |
| MKINQMKKDQLFEGFYLIKSAEVRKTRAGKDFISLTFQDDTGEISGNLWDAQPYNVEEFTAGKVVFMKGRREVYNGTPQVNQITLRNVRPGEPNDPKDFKEKAPVSVTEVRDYLEQMLFKIENATWQRIVRALYRKYDKEFYTYPAAKTNHHAFESGLAYHTATMVRLADSIGDIYPDLNKSLLFAGIMLHDLAKVIELTGPDNTEYTVRGNLIGHISLINEEITKVISELQIDDTKEEVIVLRHVILSHHGQLEYGSPVRPRIMEAEIIHMIDNIDANMMMMTTALSRVSEGEMTNRIFAMDNRSFYKPNY | not soluble |
| MKISLSTSLFSIEQKVEYFNLNYQSLSDFSVVAKLNYTFTWYGNDFSIGFAPKKGEKLYFDLFFTFKASPNHPFAAENFKPDSEAIDFYVSFSWRLEGKDEVSKKLFELSVFGRARAFQIDDYKINLFSYLVYVIR | soluble |
| MKISRETLHQLIENKLCQAGLKREHAATVAEVLVYADARGIHSHGAVRVEYYAERISKGGTNREPEFRLEETGPCSAILHADNAAGQVAAKMGMEHAIKTAQQNGVAVVGISRMGHSGAISYFVQQAARAGFIGISMCQSDPMVVPFGGAEIYYGTNPLAFAAPGEGDEILTFDMATTVQAWGKVLDARSRNMSIPDTWAVDKNGVPTTDPFAVHALLPAAGPKGYGLMMMIDVLSGVLLGLPFGRQVSSMYDDLHAGRNLGQLHIVINPNFFSSSELFRQHLSQTMRELNAITPAPGFNQVYYPGQDQDIKQRKAAVEGIEIVDDIYQYLISDALYNTSYETKNPFAQLEHHHHHH | soluble |
| MKITSYVSFLYCLCLMLASPTVQASEVRTAIFEGKPCINPPHVVGNYPATPFLFYIPTSGERPIKWHAENLPKGLKLDKETGIIKGKVVEKGTYKVMLKAENALGTDTQELLINIGDELLLTPPMGWNSWNTFGRHLTEELLLQTADAMVENGMRDLGYAFINIDDFWQLPERGADGHIQIDKTKFPRGIKYVADYLHERGFKLGIYSDAADKTCGGVCGSYGYEEIDARDFASWGVDLLKYDYCNAPAGRVEAMERYEKMGRALRATDRSIVFSICEWGQREPWKWAKKVGGHLWRVSGDIGDLWNRSTDEKGGLRGILNILEINAPLSEYARPGGWNDPDMLVVGIGGKSKSIGYESEGCTNEQYQSHFALWCMMASPLLCGNDVRQMNDSTLQILLNKDLIAINQDPLGIQAERAIRADHYDVWVKPLSDGSKAIACLNRISGPVDVELNVKTVEGLSLDRVYDVIEGSLVAEASTGWVVKLAPGECKVFICKLEHHHHHH | not soluble |
| MKITVIGAGNVGATTAFRLAEKQLARELVLLDVVEGIPQGKALDMYESGPVGLFDTKVTGSNDYADTANSDIVVITAGLPRKPGMTREDLLSMNAGIVREVTGRIMEHSKNPIIVVVSNPLDIMTHVAWQKSGLPKERVIGMAGVLDSARFRSFIAMELGVSMQDVTACVLGGHGDAMVPVVKYTTVAGIPVADLISAERIAELVERTRTGGAEIVNHLKQGSAFYSPATSVVEMVESIVLDRKRVLTCAVSLDGQYGIDGTFVGVPVKLGKNGVEHIYEIKLDQSDLDLLQKSAKIVDENCKMLDASQG | soluble |
| MKIVSIKIKNYRVFEDIKITNIPSFCVIIGANGTGKSTLFDVFGFLRDALKNNIRQALQIRGGFKEVVTRGKESEDIEIELKFRMEILATERLVTYILIIGQEGKKPVIKREILRYKRGEYGSPFHFLDFHNGQGYAIRNEESFESDEELEREEQKLESADILAIKGLGQFQRFKAANAIRSLIENWHVSDFHISDARGSKAALYAEHLSPTGDNIPIVAQYIYQEHPEIFAEILQRMKQRVPGISNVEAKEIEGGSLILKFQDQAFEDSFVDLYVSDGTIKMFAYLILLFDPKPHPLLCVEEPENQLYPTLLRELAEEFASYAHRGGQVFVSTHSPDFLNAVPLDSIFWLIKIQGVTKVEKAADHEVLRNLIAAGDLPGYLWNQGWFEGVAPLEHHHHHH | not soluble |
